The assay has as its target T1, hen egg white lysozyme (hen, UniProt P00698 19-147, biotinylated (HEL-b); sites not stated).
T1 construct: also called lyzozyme; HEL-b (biotinylated)
The experiment in a line: yeast display selection.

T1 sequence (P00698 19-147 limits assumed): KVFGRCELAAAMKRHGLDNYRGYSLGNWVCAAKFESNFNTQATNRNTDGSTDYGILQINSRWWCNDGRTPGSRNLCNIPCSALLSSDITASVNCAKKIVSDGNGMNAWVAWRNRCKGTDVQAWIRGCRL

B1: SEQ ID NO 70 (designed binder)
chain: VSDVPRDLEVVAATPTSLLISWDAPAVTVRYYRITYGESHQGLSYQEFTVPGSKSTATISPGSSSVDYTITVYAVTGRGESPASSKPISINYRYYR
B1: the binding result is reported as “binds”.

B2: SEQ ID NO 52 (designed binder)
chain: VSDVPRDLEVVAATPTSLLISWDAPAVTVRYYRITYGESSRSPRGQEFTVPGSKSTATISRAEYRVDYTITVYAVTGRGESPASSKPISINYYLRQ
On to B2, for which the binding result is recorded as “binds”.

B3: SEQ ID NO 53 (designed binder)
chain: VSDVPRDLEVVAATPTSLLISWDAPAVTVRYYRITYGESSPEYRGQEFTVPGSKSTATISLEEYEVDYTITVYAVTGRGESPTSSKPISINYQYRY
As for B3, the binding result is “binds”.

B4: SEQ ID NO 43 (designed binder)
chain: VSDVPRDLEVVAATPTSLLISWDAPAVTVRYYRITYGEEAYRSEGQEFTVPGSKSTATISSYGQGVDYTITVYAVTGRGESPASSKPISINYEGSE
Consider B4, for which the binding result is listed as “binds”.

B5: SEQ ID NO 66 (designed binder)
chain: VSDVPRDLEVVAATPTSLLISWDAPAVTVRYYRITYGEYYRSYYQEFTVPGSKSTATISSYEPPVDYTITVYAVTGRGESPASSKPISINYRRYL
For the molecule B5, the binding result is recorded as “binds”.

B6: SEQ ID NO 80 (designed binder)
chain: VSDVPRDLEVVAATPTSLLISWDAPAVTVRYYRITYGESRRSYPQEFTVPGSKSTATISSSHRSVDYTITVYAVTGRGESPASSKPISINYRSYL
In the case of B6, the binding result was “binds”.

B7: SEQ ID NO 48 (designed binder)
chain: VSDVPRDLEVVAATPTSLLISWDAPAVTVRYYRITYGEQSGLSEHQEFTVPGSKSTATISSLRYYVDYTITVYAVTGRGESPASSKPISINYAYEY
B7: the binding result is on record as “binds”.

B8: SEQ ID NO 47 (designed binder)
chain: VSDVPRDLEVVAATPTSLLISWDAPAVTVRYYRITYGEERGYERSRQEFTVPGSKSTATISESYRYVDYTITVYAVTGRGESPASSKPISINYPHSY
For the molecule B8, the binding result is given as “binds”.

B9: SEQ ID NO 65 (designed binder)
chain: VSDVPRDLEVVAATPTSLLISWDAPAVTVRYYRITYGERLREGGSQEFTVPGSKSTATISRAGERVDYTITVYAVTGRGESPASSKPISINYAQYP
In the case of B9, the binding result is “binds”.

B10: SEQ ID NO 63 (designed binder)
chain: VSDVPRDLEVVAATPTSLLISWDAPAVTVRYYRITYGERERQHGYQEFTVPGSKSTATISRYRRRVDYTITVYAVTGRGESPASSKPISINYEPGY
Consider B10, for which the binding result is recorded as “binds”.

B11: SEQ ID NO 64 (designed binder)
chain: VSDVPRDLEVVAATPTSLLISWDAPAVTVRYYRITYGERRSHRERQEFTVPGSKSTATISRRRRRVDYTITVYAVTGRGESPASSKPISINYSRRR
In the case of B11, the binding result is “binds”.

B12: SEQ ID NO 45 (designed binder)
chain: VSDVPRDLEVVAATPTSLLISWDAPAVTVRYYRITYGEQAQEEGQEFTVPDSKSTATISAHRSYVDYTITVYAVTGRGESPASSKPISINYYYGE
As for B12, the binding result is “binds”.

B13: SEQ ID NO 75 (designed binder)
chain: VSDVPRDLEVVAATPTSLLISWDAPAVTVRYYRITYGEYGGSQAQEFTVPGSKSTATISREYGSVDYTITVYAVTGRGESPASSKPISINYALGE
As for B13, the binding result is “binds”.

B14: SEQ ID NO 46 (designed binder)
chain: VSDVPRDLEVVAATPTSLLISWDAPAVTVRYYRITYGEYRSYRSERQEFTVPGSKSTATISRGYRAVDYTITVYAVTGRGESPASSKPISINYSYRY
On to B14, for which the binding result is given as “binds”.

B15: SEQ ID NO 72 (designed binder)
chain: VSDVPRDLEVVAATPTSLLISWDAPAVTVRYYRITYGERGGYSSQEFTVPGSKSTATISSRYRQVDYTITVYAVTGRGESPASSKPISINYQSYS
Turning to B15, the binding result is “binds”.

B16: SEQ ID NO 50 (designed binder)
chain: VSDVPRDLEVVAATPTSLLISWDAPAVTVRYYRITYGESLYYHQEFTVPGSKSTATISASYYAVDYTITVYAVTGRGESPASSKPISINYSYHL
Consider B16, for which the binding result is on record as “binds”.

B17: SEQ ID NO 58 (designed binder)
chain: VSDVPRDLEVVAATPTSLLISWDAPAVTVRYYRITYGESSHGRSQEFTVPGSKSTATISSSSSRVDYTITVYAVTGRGESPASSKPISINYGYRG
On to B17, for which the binding result is listed as “binds”.

B18: SEQ ID NO 59 (designed binder)
chain: VSDVPRDLEVVAATPTSLLISWDAPAVTVRYYRITYGEYGYSRSQEFTVPGSKSTATISYSSPRVDYTITVYAVTGRGESPASSKPISINYGSRY
As for B18, the binding result is recorded as “binds”.

B19: SEQ ID NO 69 (designed binder)
chain: VSDVPRDLEVVAATPTSLLISWDAPAVTVRYYRITYGEYRSSSYYQEFTVPGSKSTATISYPSERVDYTITVYAVTGRGESPASSKPISINYQSSA
With B19, the binding result is “binds”.

B20: SEQ ID NO 116 (designed binder)
chain: VSDVPRDLEVVAATPTSLLISWDAPTVTVRYYRITYGEPQASHRPYQEFTVPGSKSTATISSRSQSVDYTITVYAVTGRGESPASSKPISINYLREL
For the molecule B20, the binding result is “binds”.

B21: SEQ ID NO 54 (designed binder)
chain: VSDVPRDLEVVAATPTSLLISWDAPAVTVRYYRITYGESLRSREGQEFTVPGSKSTATISGRQESVDYTITVYAVTGRGESPASSKPISINYGQRY
Turning to B21, the binding result is reported as “binds”.

B22: SEQ ID NO 67 (designed binder)
chain: VSDVPRDLEVVAATPTSLLISWDAPAVTVRYYRITYGEYYARPEYQEFTVPGSKSTATISYYEPEVDYTITVYAVTGRGESPASSKPISINYRSYP
For B22, the binding result is listed as “binds”.

B23: SEQ ID NO 61 (designed binder)
chain: VSDVPRDLEVVAATPTSLLISWDAPAVTVRYYRITYGEPRSEEGEQEFTVPGSKSTATISRRYSLVDYTITVYAVTGRGESPASSKPISINYYSSR
For the molecule B23, the binding result is listed as “binds”.

B24: SEQ ID NO 71 (designed binder)
chain: VSDVPRDLEVVAATPTSLLISWDAPAVTVRYYRITYGERGSGLGYQEFTVPGSKSTATISSRAYRVDYTITVYAVTGRGESPASSKPISINYALYE
As for B24, the binding result is recorded as “binds”.

B25: SEQ ID NO 44 (designed binder)
chain: VSDVPRDLEVVAATPTSLLISWDAPAVTVRYYRITYGESSLGSEQEFTVPGSKSTATISEYAPYVDYTITVYAVTGRGESPASSKPISINYYGPG
Turning to B25, the binding result is recorded as “binds”.

B26: SEQ ID NO 55 (designed binder)
chain: VSDVPRDLEVVAATPTSLLISWDAPAVTVRYYRITYGEGQGAGASQEFTVPGSKSTATISGAEPAVDYTITVYAVTGRGESPASSKPISINYGPRY
On to B26, for which the binding result is “binds”.

B27: SEQ ID NO 62 (designed binder)
chain: VSDVPRDLEVVAATPTSLLISWDAPAVTVRYYRITYGEAASSRLRQEFTVPGSKSTATISSYSGLVDYTITVYAVTGRGESPASSKPISINYYSSY
As to B27, the binding result was “binds”.

B28: SEQ ID NO 113 (designed binder)
chain: VSDVPRDLEVVAATPTSLLISWDAPAVTVRYYRITYGERRGQYGSSQEFTVPGSKSTATISSPEGSVDYTITVYAVTGRGESPASSKPISINYSRSE
Take B28: the binding result was “binds”.

B29: SEQ ID NO 73 (designed binder)
chain: VSDVPRDLEVVAATPTSLLISWDAPAVTVRYYRITYGERGYPGQEFTVPGSKSTATISEYSHSVDYTITVYAVTGRGESPASSKPISINYAQYQ
Turning to B29, the binding result is on record as “binds”.

B30: SEQ ID NO 56 (designed binder)
chain: VSDVPRDLEVVAATPTSLLISWDAPAVTVRYYRITYGEYLYHHGQEFTVPGSKSTATISYRSAPVDYTITVYAVTGRGESPASSKPISINYRHER
In the case of B30, the binding result is listed as “binds”.

B31: SEQ ID NO 60 (designed binder)
chain: VSDVPRDLEVVAATPTSLLISWDAPAVTVRYYRITYGEYRYAYAYGQEFTVPGSKSTATISRSSPRVDYTITVYAVTGRGESPASSKPISINYPRRY
Consider B31, for which the binding result is recorded as “binds”.

B32: SEQ ID NO 49 (designed binder)
chain: VSDVPRDLEVVAATPTSLLISWDAPAVTVRYYRITYGERGSEAERQEFTVPGSKSTATISQAYYGVDYTITVYAVTGRGESPASSKPISINYSYAS
Take B32: the binding result is listed as “binds”.

B33: SEQ ID NO 57 (designed binder)
chain: VSDVPRDLEVVAATPTSLLISWDAPAVTVRYYRITYGEGSLLYHSQEFTVPGSKSTATISYGPASVDYTITVYAVTGRGESPASSKPISINYRRRY
On to B33, for which the binding result was “binds”.

B34: SEQ ID NO 114 (designed binder)
chain: VSDVPRDLEVVAATPTSLLISWDAPAVTVRYYRITYGEQRYSYYGQQEFTVPGSKSTATISSGRSSVDYTITVYAVTGRGESPASSKPISINYRRSY
Turning to B34, the binding result is recorded as “binds”.

B35: SEQ ID NO 115 (designed binder)
chain: VSDVPRDLEVVAATPTSLLISWDAPAVTVRYYRITYGERPASYRAAQEFTVPGSKSTATISSYSYSVDYTITVYAVTGRGESPASSKPISINYRRSG
For B35, the binding result is recorded as “binds”.

B36: SEQ ID NO 74 (designed binder)
chain: VSDVPRDLEVVAATPTSLLISWDAPAVTVRYYRITYGEYEPYGSQYQEFTVPGSKSTATISERQHAVDYTITVYAVTGRGESPASSKPISINYRRYE
Regarding B36, the binding result is on record as “binds”.

The values above are taken from patent US9296810 (Novartis, dated 2016).
